Measurements from patent US6803203B1, “DNA-PK assay” (Brookhaven Science Associates, priority 1993, dated 2004).
Entries after “also recorded” stand apart in the source; their conditions may differ. Residues, ends and D or L forms follow the SMILES beside them. No end group written: not given here.

What was measured:
Type in all cases: biochemical
DNA-PK [1] = target: T1, DNA-PK (Homo sapiens, UniProt P78527); assay: Conditions that result in 50% inhibition of DNA-PK activity; settings: for 50% Inhibition / IC50: inhibition of DNA-PK activity in vitro
T1 construct: DNA-PK was purified from HeLa cells; endogenous in cells; host or cells: HeLa S3 cells; the endogenous enzyme was purified in house by chromatography
Experimental: Experiments were performed to determine optimal DNA-PK assay conditions. It was determined that DNA-PK is active over a broad pH range and the most common buffers with the exception of phosphate buffers. A summary of assay conditions that optimize DNA-PK activity in vitro is found in Table 4 along with a summary of conditions that result in 50% inhibition of DNA-PK activity.
The methods used to obtain results in the second section (Inhibitor section) of Table 4 are illustrative of methods that are applicable to identifying substances that alter the activity of DNA-PK.

DNA-PK [2] = target: T1, DNA-PK; assay: Phosphorylation of synthetic peptides by purified DNA-PK (phosphocellulose paper binding method); settings: for PO4 incorp.: each peptide at 200 μM, calf thymus DNA 10 μg/ml, 30° C.
Experimental: Phenylmethylsulfonyl fluoride was added to the S10 (10,000×g) supernatant as a powder to 0.5 mM. DNA-PK activity was found in the 100,000×g (ribosomal) pellet. DNA-PK preparations typically were made from 200 ml of S10 supernatant that had been derived from approximately 10^10 cells. All steps were performed at 4° C. unless indicated otherwise.
Phosphorylation reactions were performed in a 20- or 40-μl final volume as previously described by Chen, et al., J. Virol., 10:5131-5140 (1991) and Lees-Miller, et al., Mol. Cell. […] In particular, in addition to synthetic peptide substrates or protein substrates, the assays contained 50 mM HEPES (pH 7.5), 100 mM KCl, 10 mM MgCl2, 2 mM EGTA, 0.1 mM EDTA and 0.125 mM ATP containing [^32P]ATP at 0.2 mCi/ml. […] Assays were started by adding 1 μl of kinase sample. Incubations were at 30° C. for 7 min.
For determinations of kinetic constants, the ATP concentration was 0.5 mM. When present, hsp90 was included at 0.5 mg/ml. Assay mixtures were preincubated at 30° C. for 2 min before addition of 0.1 to 0.5 μg (protein) of the DNA-PK preparation.
In particular, kinase reactions were stopped by adding an equal volume of 30% acetic acid, and portions of the acidified reaction were spotted on 2- by 2-cm squares of P-81 paper (Whatman, Inc., Clifton, N.J.). […] The P-81 squares were then transferred to scintillation vials containing 3.5 ml of water, and bound radioactivity was determined from the Cerenkov radiation. Enzyme activity was calculated from triplicate determinations, using the specific activity of the ATP and the protein concentration, which was determined by the Bio-Rad dye-binding assay (Bio-Rad (Bradford) Protein Assay Kit 1, Cat. No. 500-001, Bio-Rad Laboratories, Hercules, Calif.), using bovine serum albumin as the standard. […] The kinetic constants, Km and Vmax for each peptide sequence were calculated from plots of 1/[S] versus 1/V, the values reported are averages of at least two independent determinations.

DNA-PK [3] = target: T1, DNA-PK; assay: Poorer substrate peptides added to (SEQ ID NO: 8) phosphorylation assays; settings: peptide up to 250 μM; (SEQ ID NO: 8) at 100 μM
DNA-PK [4] = target: T1, DNA-PK; assay: Identification of phosphorylated residues (sequence analysis, S-ethylcysteine conversion); settings: p53 residue numbering
Experimental: To determine which of these were phosphorylated, after incubation with DNA-PK, radiochemical sequence analysis was performed by using a Beckman 890M spinning-cup sequencer (Beckman Instruments, Palo Alto, Calif.) as described by Lees-Miller, et al., J. Biol. Chem., 264:17275-17280 (1989). The peptide was isolated by reverse-phase HPLC, peptidylphosphoserine was converted to S-ethylcysteine, and the position of phenylthiohydantoin (PTH)-S-ethylcysteine was determined by chemical microsequence analysis using an Automated Protein/Peptide sequencer (Applied Biosystems, Foster City, Calif.) and a 120 PTH-Amino Acid Analyzer (Applied Biosystems, Foster City, Calif.) as described by Lees-Miller, et al., J. Biol. Chem., 264:17275-17280 (1989).
A peptide corresponding to mouse p53 residues Met^4-Pro^31, (SEQ ID NO: 2), was also examined (See Table 1). Serine 7 of mouse p53 is at the position equivalent to proline 4 of human p53, and the glutamine at position 8 of mouse p53 is conserved among mammals as reported by Soussi, et al., Oncogene, 5:945-952 (1990). After phosphorylation of (SEQ ID NO: 2) the peptide was digested with endoproteinase Glu-C, and the resulting fragments were separated by reverse-phase HPLC. […] Each peptide was treated to convert phosphoserine to S-ethylcysteine; then they were resequenced.

DNA-PK [5] = target: T1, DNA-PK; assay: Phosphorylation of recombinant protein substrates by purified DNA-PK (SDS-PAGE, phosphorimage); settings: 5 μg/ml calf thymus DNA compared to no addition of DNA; 30 minutes at 30° C.
Experimental: The recombinant protein substrates, a total of six, (at approximately 0.1 mg/ml final concentration) were separately mixed with hsp90 in a phosphorylation reaction with purified DNA-PK (0.6 pg, 0.02 units/assay) without (−) or with (+) 5 μg/ml calf thymus DNA, in the presence of ^32P-ATP for 30 minutes at 30° C. as described by Lees-Miller, et al., Mol. Cell. Biol., 12:5041-5049 (1992). The phosphorylation reactions were stopped with SDS sample buffer and analyzed with SDS-PAGE. The gel was fixed, stained with Coomassie brilliant blue, dried and developed by autoradiographic procedures. The results of which can be seen in FIG. 9.

Compound	substrate activity for DNA-PK (in words) (DNA-PK [2])	PO4 incorp. (DNA-PK [2])	inhibition of phosphorylation of (SEQ ID NO: 8) (DNA-PK [3])	further results
OCC(O)CO [Glycerol]	–	–	–	effect on DNA-PK activity (in words) (DNA-PK [1]): inhibited; 50% Inhibition (DNA-PK [1]): 25 % v/v
O=P(O)(O)OP(=O)(O)O [Pyrophosphate]	–	–	–	effect on DNA-PK activity (in words) (DNA-PK [1]): inhibited; IC50 (DNA-PK [1]): 3 mM
CSCC[C@H](NC(=O)[C@H](C)NC(=O)[C@H](CCC(N)=O)NC(=O)[C@H](CO)NC(=O)[C@@H]1CCCN1C(=O)[C@H](CC(C)C)NC(=O)[C@@H]1CCCN1C(=O)[C@H](CO)NC(=O)[C@H](CC(C)C)NC(=O)[C@@H](NC(=O)[C@H](CC(N)=O)NC(=O)[C@@H](N)CC(N)=O)C(C)C)C(=O)N[C@@H](CC(=O)O)C(=O)N[C@@H](CC(=O)O)C(=O)N[C@@H](CC(C)C)C(=O)N[C@@H](CCSC)C(=O)N[C@@H](CCCCN)C(=O)N[C@@H](CCCCN)C(=O)O [SEQ ID NO: 6]	–	–	–	Km relative to (SEQ ID NO: 4) (DNA-PK [2]): twice as high
CC(C)C[C@H](NC(=O)[C@H](CC(=O)O)NC(=O)[C@H](C)NC(=O)[C@H](Cc1ccccc1)NC(=O)[C@H](C)NC(=O)[C@H](CCC(=O)O)NC(=O)[C@H](CCC(N)=O)NC(=O)[C@H](CO)NC(=O)[C@H](CC(C)C)NC(=O)[C@@H]1CCCN1C(=O)[C@@H]1CCCN1C(=O)[C@@H](N)CCC(=O)O)C(=O)N[C@@H](Cc1c[nH]c2ccccc12)C(=O)N[C@@H](CCCCN)C(=O)N[C@@H](CCCCN)C(=O)O [SEQ ID NO: 11] (H-EPPLSQEAFADLWKK-OH)	–	–	–	Km relative to (SEQ ID NO: 8) (DNA-PK [2]): twofold increase
EPPDSQEAFADLWKK [SEQ ID NO: 17]	less effective substrate for DNA-PK than peptides (SEQ ID NOS: 15 AND 16)	48 pmol/min/μg of DNA-PK	–	–
EPPLAQETFSDLWKK [SEQ ID NO: 22]	not phosphorylated efficiently by DNA-PK	–	–	–
EPPLSEEAFADLWKK [SEQ ID NO: 32]	effectively eliminated the ability of the sequence to act as a DNA-PK substrate	0.4 pmol/min/μg of DNA-PK	None of these peptides significantly inhibited the phosphorylation	–
EPPLSNEAFADLWKK [SEQ ID NO: 33]	eliminated the ability of the sequence to act as a DNA-PK substrate	0.1 pmol/min/μg of DNA-PK	None of these peptides significantly inhibited the phosphorylation	–
EPPLSQETFKK [SEQ ID NO: 9]	–	15 pmol/min/μg of DNA-PK	None of these peptides significantly inhibited the phosphorylation	rate of phosphorylation relative to control (SEQ ID NO: 8) (DNA-PK [2]): approximately 10%
EPPLSYEAFADLLKK [SEQ ID NO: 34]	–	2.3 pmol/min/μg of DNA-PK	–	–
Glu Pro Pro Leu Ser Gln Glu Thr Phe Ser Asp—Lys Lys (EPPLSQETFSDKK; Human p53 residues 11-21; listed as Homo sapiens) [SEQ ID NO: 10]	–	12 pmol/min/μg of DNA-PK	None of these peptides significantly inhibited the phosphorylation	rate of phosphorylation relative to control (SEQ ID NO: 8) (DNA-PK [2]): approximately 10%
Heparin [reference compound]	–	–	–	effect on DNA-PK activity (in words) (DNA-PK [1]): inhibited; 50% Inhibition (DNA-PK [1]): 1 µg/mL
His Lys Lys Leu Met Phe Lys Thr Glu Gly Pro Asp Ser Asp (HKKLMFKTEGPDSD; Human p53 residues 380-393; listed as Homo sapiens) [SEQ ID NO: 31]	phosphorylated at a negligible rate; also recorded: not substrates for DNA-PK	0 pmol/min/μg of DNA-PK	None of these peptides significantly inhibited the phosphorylation	–
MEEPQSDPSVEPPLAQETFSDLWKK [SEQ ID NO: 5]	ineffective substrate for DNA-PK	5.3 pmol/min/μg of DNA-PK	None of these peptides significantly inhibited the phosphorylation	rate of phosphorylation relative to (SEQ ID NO: 4) (DNA-PK [2]; at 200 μM): about 10%
MEESQSDISLELPLSQETFSGLWKLLPP [SEQ ID NO: 2]	–	–	–	site phosphorylated by DNA-PK (DNA-PK [4]): Ser^7 and Ser^18
PESEQAFADLWKK [SEQ ID NO: 23]	not phosphorylated by DNA-PK	–	–	–
Phosphate	–	–	–	effect on DNA-PK activity (in words) (DNA-PK [1]): inhibited; IC50 (DNA-PK [1]): 10 mM
Ser Lys Lys Gly Gln Ser Thr Ser Arg His Lys Lys Leu Met Phe (SKKGQSTSRHKKLMF; Human p53 residues 371-385; listed as Homo sapiens) [SEQ ID NO: 30]	phosphorylated at a negligible rate	0 pmol/min/μg of DNA-PK	–	–
hsp90: human heat shock protein hsp90, a known DNA-PK substrate [reference compound]	–	–	–	increase in phosphate incorporation by addition of double stranded DNA (DNA-PK [5]): 20 fold
